Series [1] addresses UHRF1 SRA SUVH5 finger swap (/ A. thaliana finger loop) (UniProt Q96T88). Kind of series: fluorescence polarization. To be noted: 0.05% NP-40, 10 nM FAM-DNA (temperature not stated), ITC: 25 mM HEPES, 1 mM DTT, 25 C. In general terms: In fluorescence polarisation assays a small probe gives low polarisation when free and higher when bound to something large.
The target in a further series is T1, UHRF1 SRA (WT) (UniProt Q96T88 414-616).
T1 sequence: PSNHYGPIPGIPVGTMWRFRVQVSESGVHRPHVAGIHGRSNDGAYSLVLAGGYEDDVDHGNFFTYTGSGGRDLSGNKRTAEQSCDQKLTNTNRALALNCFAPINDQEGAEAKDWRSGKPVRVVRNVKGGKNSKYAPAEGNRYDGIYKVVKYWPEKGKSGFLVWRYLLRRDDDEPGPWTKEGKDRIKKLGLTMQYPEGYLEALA
In words: ITC; 35 uM protein in cell, 430 uM DNA in syringe; n 0.5-1.0; FP: 25 mM HEPES pH 7.5, 100 mM NaCl, 0.05% NP-40, 10 nM FAM-DNA (temperature not stated); ITC: 25 mM HEPES, 100 mM NaCl, 1 mM DTT, 25 C. To be noted: protein: recombinant; tags: N-terminal His6-MBP (retained); blunt. In general terms: Isothermal titration calorimetry measures the heat released or taken up as one component is titrated into another.

UHRF1 SRA SUVH5 finger swap (/ A. thaliana finger loop), sequence (Q96T88 whole entry): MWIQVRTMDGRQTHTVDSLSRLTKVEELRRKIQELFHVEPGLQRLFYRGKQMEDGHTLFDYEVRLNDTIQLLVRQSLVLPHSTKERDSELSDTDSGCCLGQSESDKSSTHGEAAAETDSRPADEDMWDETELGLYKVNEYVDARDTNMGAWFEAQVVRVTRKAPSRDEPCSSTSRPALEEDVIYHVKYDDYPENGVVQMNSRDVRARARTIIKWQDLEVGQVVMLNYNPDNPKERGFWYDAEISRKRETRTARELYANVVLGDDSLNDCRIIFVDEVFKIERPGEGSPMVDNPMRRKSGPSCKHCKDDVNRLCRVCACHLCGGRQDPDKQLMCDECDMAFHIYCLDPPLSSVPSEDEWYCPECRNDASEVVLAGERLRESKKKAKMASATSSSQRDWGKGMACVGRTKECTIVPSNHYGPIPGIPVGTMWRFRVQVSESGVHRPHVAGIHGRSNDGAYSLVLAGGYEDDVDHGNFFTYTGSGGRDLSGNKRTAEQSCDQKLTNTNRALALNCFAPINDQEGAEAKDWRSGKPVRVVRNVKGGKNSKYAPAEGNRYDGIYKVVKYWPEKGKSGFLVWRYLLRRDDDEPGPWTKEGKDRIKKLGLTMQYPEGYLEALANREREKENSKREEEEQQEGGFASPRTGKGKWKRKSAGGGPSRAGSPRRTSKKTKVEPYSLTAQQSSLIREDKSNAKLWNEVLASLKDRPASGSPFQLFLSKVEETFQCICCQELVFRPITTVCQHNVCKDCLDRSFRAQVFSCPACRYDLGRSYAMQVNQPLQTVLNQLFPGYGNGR

The molecule “CCATGCGCTGAC (double strand) [He5mC (FAM)]” had a Kd in series [1] (5mC at position 6 of strand 1, FP: 25 mM HEPES pH 7.5, 100 mM NaCl) of 200 nM.
On to CCATGCGCTGAC (double strand) [Sy5mC], for which the Kd in series [1] (5mC at position 6 of strand 1 and position 6 of strand 2, FP: 25 mM HEPES pH 7.5, 100 mM NaCl) was 200 nM.
Molecule CCATGCGCTGAC (double strand) [UnDNA] displayed a Kd in series [1] (FP: 25 mM HEPES pH 7.5, 100 mM NaCl) of 200 nM.

B1: He5mC (unlabelled, ITC) (dsDNA)
DNA 1: CCATGCGCTGAC
DNA 2: GTCAGCGCATGG
modifications: 5mC at position 6 of strand 1
For the molecule B1, the binding result in the series with UHRF1 SRA (WT) is “binds”.

As usually defined, the Kd is a measure of binding affinity in units of concentration. A higher Kd goes with weaker binding.

Source of the values: publication PMC6816099, “The finger loop of the SRA domain in the E3 ligase UHRF1 is a regulator of ubiquitin targeting and is required for the maintenance of DNA methylation”.
